Patent publication US20220227882A1 (TRUSTEES OF TUFTS COLLEGE, published 2022)

What was measured:
G445A = target: T1, G445A (Homo sapiens, UniProt P78325); assay: high-throughput flow cytometry, HEK293 cells with mutant ADAM8, high stringency; range in parentheses; closed box
T1 construct: expressed on HEK293 cells; also called human ADAM8 point mutant G445A
T1 sequence (ADAM8, looked up): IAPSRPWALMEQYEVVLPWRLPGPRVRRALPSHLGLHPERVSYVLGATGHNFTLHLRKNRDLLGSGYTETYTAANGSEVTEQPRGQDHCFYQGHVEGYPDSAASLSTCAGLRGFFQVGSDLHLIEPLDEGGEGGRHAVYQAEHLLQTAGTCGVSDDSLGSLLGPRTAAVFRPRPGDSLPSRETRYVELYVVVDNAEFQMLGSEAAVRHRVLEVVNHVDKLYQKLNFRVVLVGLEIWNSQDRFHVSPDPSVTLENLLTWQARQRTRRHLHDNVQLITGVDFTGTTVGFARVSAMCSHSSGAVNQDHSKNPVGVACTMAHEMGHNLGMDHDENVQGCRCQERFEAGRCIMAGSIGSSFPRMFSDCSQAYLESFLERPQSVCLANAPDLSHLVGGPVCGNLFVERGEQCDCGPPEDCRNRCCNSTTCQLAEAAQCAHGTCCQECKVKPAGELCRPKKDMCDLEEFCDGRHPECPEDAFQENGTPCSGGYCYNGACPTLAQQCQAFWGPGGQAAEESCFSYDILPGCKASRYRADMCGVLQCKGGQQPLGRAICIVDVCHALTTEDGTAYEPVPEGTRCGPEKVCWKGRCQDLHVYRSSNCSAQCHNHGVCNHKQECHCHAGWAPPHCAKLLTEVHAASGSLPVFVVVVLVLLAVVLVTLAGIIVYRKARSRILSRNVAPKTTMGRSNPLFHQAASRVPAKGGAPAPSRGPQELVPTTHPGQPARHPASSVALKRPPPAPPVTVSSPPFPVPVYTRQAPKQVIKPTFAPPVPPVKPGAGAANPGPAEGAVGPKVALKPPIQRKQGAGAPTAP
Experimental: (§1) A variety of experimental parameters were optimized for high-throughput flow cytometry including blocking buffer, and primary and secondary antibody concentrations, to identify the optimal conditions for screening. Through these studies ADP2 and ADP13 were determined to be high affinity binding antibodies.
(§2) Thus, for these studies antigen-binding fragments (Fabs) of ADP2 and ADP13, which bind with lower affinity than the full antibody, were generated. In addition, higher binding stringency conditions were tested, such as increased pH, salinity, and temperature, and/or increased washing, to weaken binding sufficiently to allow identification of critical binding residues in flow cytometry. The final experimental flow cytometry conditions were: primary antibody incubation with ADP2 Fab (0.50 μg/ml), ADP13 Fab (5.00 μg/ml) and Control Ab (0.16 μg/ml) for 60 minutes in flow cytometry buffer containing 10% goat serum in PBS (Ca²⁺ and Mg²⁺ free). […] Samples were washed three times after primary antibody incubation and twice after secondary antibody incubation with PBS (Ca²⁺ and Mg′ free). Next, HEK293 cells expressing WT or mutated ADAM8 proteins or EV DNA were incubated with ADP2 or ADP13 Fabs or Control Ab at their optimal concentrations. Fab binding was detected using Alexa Fluor 488-conjugated secondary antibodies and mean cellular fluorescence determined using the Intellicyt iQue flow cytometry platform. […] This counter-screen strategy facilitates the exclusion of mutants that are locally misfolded or that have an expression defect. Binding of each test Fab to each mutant clone in the alanine scanning library was determined, in duplicate, by high-throughput flow cytometry.

R482A = target: T2, R482A (Homo sapiens, UniProt P78325); assay: as above
T2 construct: expressed on HEK293 cells; also called human ADAM8 point mutant R482A
T2 sequence (ADAM8, looked up): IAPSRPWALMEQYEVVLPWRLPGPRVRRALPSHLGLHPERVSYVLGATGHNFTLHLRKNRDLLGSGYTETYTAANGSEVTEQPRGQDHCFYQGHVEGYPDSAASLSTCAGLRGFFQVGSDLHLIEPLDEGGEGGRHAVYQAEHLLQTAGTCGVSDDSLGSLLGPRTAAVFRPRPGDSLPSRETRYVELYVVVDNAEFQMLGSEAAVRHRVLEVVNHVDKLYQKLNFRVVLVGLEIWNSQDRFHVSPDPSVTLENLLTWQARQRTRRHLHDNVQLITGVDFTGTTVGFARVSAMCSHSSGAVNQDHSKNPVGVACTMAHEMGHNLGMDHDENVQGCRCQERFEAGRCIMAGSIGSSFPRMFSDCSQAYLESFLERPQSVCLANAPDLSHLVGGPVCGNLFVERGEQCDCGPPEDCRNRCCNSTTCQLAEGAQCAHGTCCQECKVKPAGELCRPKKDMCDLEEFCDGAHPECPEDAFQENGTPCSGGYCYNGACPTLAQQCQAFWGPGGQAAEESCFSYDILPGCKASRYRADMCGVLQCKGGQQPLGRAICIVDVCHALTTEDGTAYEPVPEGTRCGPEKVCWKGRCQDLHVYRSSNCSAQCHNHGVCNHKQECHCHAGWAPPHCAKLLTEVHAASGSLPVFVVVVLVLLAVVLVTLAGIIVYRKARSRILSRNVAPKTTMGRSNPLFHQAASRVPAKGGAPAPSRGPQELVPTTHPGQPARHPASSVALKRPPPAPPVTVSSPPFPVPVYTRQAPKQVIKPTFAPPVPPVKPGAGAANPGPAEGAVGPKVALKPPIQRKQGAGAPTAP
Experimental: as §1, §2

B1: ADP13 Fab (Fab, V domains shown)
VH: EVQLQQSGPEMVKPGTSVKISCKASGYTFTDYYINWVKQSHGKSLEWIGDISPNIGGATYNPKFKGKAILTVDKSARTAYMELRSLTSEDSAVYCCTRGGSSYPYFYAMDYWGQGTSVTVSS
VL: DIVMSQSPSSLAVSVGEKVTMSCKSSQSLLYSSNQKKYLAWYQQKPGQSPKLLIYWASTRESGVPDRFTGSGSGTDFTLTISSVKAEDLAVYYCQQFYSYPYTFGGGTKLEINR
- Binding Reactivity (% WT) (G445A): 9.7 % WT
- Binding Reactivity (% WT) (R482A): 8.3 % WT
